# B1: Myotubularin-related protein 9 (Homo sapiens), Q96QG7 (parent)
# chain: MEFAELIKTPRVDNVVLHRPFYPAVEGTLCLTGHHLILSSRQDNTEELWLLHSNIDAIDKRFVGSLGTIIIKCKDFRIIQLDIPGMEECLNIASSIEALSTLDSITLMYPFFYRPMFEVIEDGWHSFLPEQEFELYSSATSEWRLSYVNKEFAVCPSYPPIVTVPKSIDDEALRKVATFRHGGRFPVLSYYHKKNGMVIMRSGQPLTGTNGRRCKEDEKLINATLRAGKRGYIIDTRSLNVAQQTRAKGGGFEQEAHYPQWRRIHKSIERYHILQESLIKLVEACNDQTHNMDRWLSKLEASNWLTHIKEILTTACLAAQCIDREGASILIHGTEGTDSTLQVTSLAQIILEPRSRTIRGFEALIEREWLQAGHPFQQRCAQSAYCNTKQKWEAPVFLLFLDCVWQILRQFPCSFEFNENFLIMLFEHAYASQFGTFLGNNESERCKLKLQQKTMSLWSWVNQPSELSKFTNPLFEANNLVIWPSVAPQSLPLWEGIFLRWNRSSKYLDEAYEEMVNIIEYNKELQAKVNILRRQLAELETEDGMQESP
# B2: U3 small nucleolar RNA-associated protein 25 homolog (Homo sapiens), Q68CQ4 (parent)
# chain: MGKRGSRSQSQLLNTLTKKQKKHLRDFGEEHPFYDRVSRKEAKPQICQLSESSDSSDSESDSESEPQQVSGYHRLLATLKNVSEEEEEDEEEEEEEDSIVDDAEMNDEDGGSDVSVEEEMAAESTESPENVALSADPEGKEDGEEPPGTSQTSPEEFTDAKHESLFSLETNFLEEESGDNSSLKASQDPFLQHVNKELKEKAIQAVATNPKTTHELKWPILGQLFFSSKFQKLETFKPPKDIDLKSLHLQKPLESTWTKTNSQFLSGPQKSSSPFTPLQKELFLIMNSYRDLFYPERTALKNGEEIRHVYCLHVINHILKANAQVLGNNSRRRSQKFGVGDDDDFRDQGLTRPKVLIVVPFREAALRVVQLFISLLEGDSKKKIIVSNKKRFQGEYGSDPEERPPNLKRPEDYEAVFVGNIDDHFRIGVAILQRSIRLYAPFYSSDILIASPLGLRTIIGGEGEKKRDFDFLSSIELLIIDQADIYLMQNWEHVLHLMNHMNLLPLDSHGVDFSRVRMWSLNNWSKYYRQTLLFGALQDAQINSVFNKYCVNMQGQVAVRNVPMTGSISHVLVQLPHVFQRMEAENLASVIDARFNFFVNKILPQYRDAVMSHTLIYIPSYFDFVRLRNYFKKEELNFTHICEYTQKSGVSRARHFFLQGEKQFLLFTERFHFYKRYTIKGIRNLIFYELPTYPHFYSEICNMLRATNRGEEATWTCTVLYSKYDAQRLAAVVGVERAAQMLQSNKNVHLFITGEK
# B3: G1/S-specific cyclin-D3 (Homo sapiens), P30281 (parent)
# chain: MELLCCEGTRHAPRAGPDPRLLGDQRVLQSLLRLEERYVPRASYFQCVQREIKPHMRKMLAYWMLEVCEEQRCEEEVFPLAMNYLDRYLSCVPTRKAQLQLLGAVCMLLASKLRETTPLTIEKLCIYTDHAVSPRQLRDWEVLVLGKLKWDLAAVIAHDFLAFILHRLSLPRDRQALVKKHAQTFLALCATDYTFAMYPPSMIATGSIGAAVQGLGACSMSGDELTELLAGITGTEVDCLRACQEQIEAALRESLREASQTSSSPAPKAPRGSSSQGPSQTSTPTDVTAIHL
# B4: E3 ubiquitin-protein ligase CCNB1IP1 (Homo sapiens), Q9NPC3 (parent)
# chain: MSLCEDMLLCNYRKCRIKLSGYAWVTACSHIFCDQHGSGEFSRSPAICPACNSTLSGKLDIVRTELSPSEEYKAMVLAGLRPEIVLDISSRALAFWTYQVHQERLYQEYNFSKAEGHLKQMEKIYTQQIQSKDVELTSMKGEVTSMKKVLEEYKKKFSDISEKLMERNRQYQKLQGLYDSLRLRNITIANHEGTLEPSMIAQSGVLGFPLGNNSKFPLDNTPVRNRGDGDGDFQFRPFFAGSPTAPEPSNSFFSFVSPSRELEQQQVSSRAFKVKRI
# B5: Protein LDOC1 (Homo sapiens), O95751 (parent)
# chain: MVDELVLLLHALLMRHRALSIENSQLMEQLRLLVCERASLLRQVRPPSCPVPFPETFNGESSRLPEFIVQTASYMLVNENRFCNDAMKVAFLISLLTGEAEEWVVPYIEMDSPILGDYRAFLDEMKQCFGWDDDEDDDDEEEEDDY
# B6: Peroxisomal bifunctional enzyme (Homo sapiens), Q08426 (parent)
# chain: MAEYTRLHNALALIRLRNPPVNAISTTLLRDIKEGLQKAVIDHTIKAIVICGAEGKFSAGADIRGFSAPRTFGLTLGHVVDEIQRNEKPVVAAIQGMAFGGGLELALGCHYRIAHAEAQVGLPEVTLGLLPGARGTQLLPRLTGVPAALDLITSGRRILADEALKLGILDKVVNSDPVEEAIRFAQRVSDQPLESRRLCNKPIQSLPNMDSIFSEALLKMRRQHPGCLAQEACVRAVQAAVQYPYEVGIKKEEELFLYLLQSGQARALQYAFFAERKANKWSTPSGASWKTASARPVSSVGVVGLGTMGRGIVISFARARIPVIAVDSDKNQLATANKMITSVLEKEASKMQQSGHPWSGPKPRLTSSVKELGGVDLVIEAVFEEMSLKKQVFAELSAVCKPEAFLCTNTSALDVDEIASSTDRPHLVIGTHFFSPAHVMKLLEVIPSQYSSPTTIATVMNLSKKIKKIGVVVGNCFGFVGNRMLNPYYNQAYFLLEEGSKPEEVDQVLEEFGFKMGPFRVSDLAGLDVGWKSRKGQGLTGPTLLPGTPARKRGNRRYCPIPDVLCELGRFGQKTGKGWYQYDKPLGRIHKPDPWLSKFLSRYRKTHHIEPRTISQDEILERCLYSLINEAFRILGEGIAASPEHIDVVYLHGYGWPRHKGGPMFYASTVGLPTVLEKLQKYYRQNPDIPQLEPSDYLKKLASQGNPPLKEWQSLAGSPSSKL
# Variants of: B1
# Conditions: with lnx1_human LNX1, Q8TBB1
row,effect of a mutation on the interaction,Variant
1,disrupting interaction strength,S126C

# Variants of: B1
# Conditions: with emil1_human EMILIN1, Q9Y6C2
row,effect of a mutation on the interaction,Variant
1,with no effect,S126C

# Variants of: B2
# Conditions: with rufy1_human RUFY1, Q96T51
# rufy1_human RUFY1, Q96T51, sequence (Q96T51 whole entry): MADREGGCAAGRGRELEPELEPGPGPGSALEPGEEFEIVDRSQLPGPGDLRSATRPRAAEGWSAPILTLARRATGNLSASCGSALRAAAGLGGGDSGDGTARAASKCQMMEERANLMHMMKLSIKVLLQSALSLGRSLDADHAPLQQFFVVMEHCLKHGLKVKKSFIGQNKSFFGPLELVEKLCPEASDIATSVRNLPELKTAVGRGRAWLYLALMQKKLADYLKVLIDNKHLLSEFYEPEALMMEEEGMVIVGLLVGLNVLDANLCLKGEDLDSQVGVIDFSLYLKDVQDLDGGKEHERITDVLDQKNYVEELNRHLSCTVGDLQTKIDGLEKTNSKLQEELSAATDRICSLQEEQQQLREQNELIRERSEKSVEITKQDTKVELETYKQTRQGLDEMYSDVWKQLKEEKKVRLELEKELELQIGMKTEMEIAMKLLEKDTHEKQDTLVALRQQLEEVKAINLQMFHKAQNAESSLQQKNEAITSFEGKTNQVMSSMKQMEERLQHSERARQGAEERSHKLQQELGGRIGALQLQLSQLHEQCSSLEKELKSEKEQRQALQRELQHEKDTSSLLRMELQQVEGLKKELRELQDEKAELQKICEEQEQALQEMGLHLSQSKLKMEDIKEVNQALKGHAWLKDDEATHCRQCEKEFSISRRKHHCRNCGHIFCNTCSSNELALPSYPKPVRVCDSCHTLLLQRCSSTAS
row,effect of a mutation on the interaction,Variant
1,with no effect,Q67E
2,with no effect,G111D

# Variants of: B2
# Conditions: with cep70_human CEP70, Q8NHQ1
# cep70_human CEP70, Q8NHQ1, sequence (Q8NHQ1 whole entry): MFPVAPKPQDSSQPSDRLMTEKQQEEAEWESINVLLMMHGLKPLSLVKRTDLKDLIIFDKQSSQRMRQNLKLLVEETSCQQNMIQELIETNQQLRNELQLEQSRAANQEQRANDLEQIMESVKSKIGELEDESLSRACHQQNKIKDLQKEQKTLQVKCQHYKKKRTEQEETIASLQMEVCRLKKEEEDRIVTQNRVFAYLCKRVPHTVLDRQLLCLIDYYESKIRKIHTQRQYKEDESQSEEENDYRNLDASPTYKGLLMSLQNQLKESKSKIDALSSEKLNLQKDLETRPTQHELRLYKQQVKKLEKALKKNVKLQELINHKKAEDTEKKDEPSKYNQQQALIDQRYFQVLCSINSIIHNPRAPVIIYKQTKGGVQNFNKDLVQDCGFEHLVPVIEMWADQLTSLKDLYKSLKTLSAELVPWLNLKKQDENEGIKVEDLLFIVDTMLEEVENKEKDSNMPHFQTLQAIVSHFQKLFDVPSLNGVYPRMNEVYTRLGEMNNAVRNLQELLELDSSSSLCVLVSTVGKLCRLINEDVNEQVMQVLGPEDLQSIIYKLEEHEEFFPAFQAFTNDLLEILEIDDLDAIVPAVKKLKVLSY
row,effect of a mutation on the interaction,Variant
1,with no effect,Q67E
2,with no effect,G111D

# Variants of: B2
# Conditions: with trim1_human MID2, Q9UJV3
# trim1_human MID2, Q9UJV3, sequence (Q9UJV3 whole entry): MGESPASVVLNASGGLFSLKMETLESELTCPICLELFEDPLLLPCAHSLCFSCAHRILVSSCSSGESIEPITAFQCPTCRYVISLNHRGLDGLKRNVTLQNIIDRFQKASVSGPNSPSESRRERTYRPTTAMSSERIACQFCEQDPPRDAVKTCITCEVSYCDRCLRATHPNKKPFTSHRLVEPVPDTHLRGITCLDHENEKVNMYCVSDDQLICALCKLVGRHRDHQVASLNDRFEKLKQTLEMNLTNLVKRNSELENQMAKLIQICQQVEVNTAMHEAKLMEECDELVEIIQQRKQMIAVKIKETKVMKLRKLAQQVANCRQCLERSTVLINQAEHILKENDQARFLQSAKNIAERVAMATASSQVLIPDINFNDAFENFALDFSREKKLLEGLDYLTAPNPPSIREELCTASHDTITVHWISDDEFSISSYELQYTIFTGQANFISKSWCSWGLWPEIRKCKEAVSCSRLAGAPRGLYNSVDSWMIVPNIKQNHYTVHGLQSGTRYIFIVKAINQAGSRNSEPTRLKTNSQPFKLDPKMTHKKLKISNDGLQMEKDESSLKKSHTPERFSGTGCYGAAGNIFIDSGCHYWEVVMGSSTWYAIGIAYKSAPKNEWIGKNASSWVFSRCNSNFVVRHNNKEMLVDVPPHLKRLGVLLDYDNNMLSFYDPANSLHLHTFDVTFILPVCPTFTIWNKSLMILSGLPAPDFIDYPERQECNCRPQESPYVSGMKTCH
row,effect of a mutation on the interaction,Variant
1,with no effect,Q67E
2,with no effect,G111D

# Variants of: B3
# Conditions: with cdk4_human CDK4, P11802
row,effect of a mutation on the interaction,Variant
1,with no effect,S259A
2,with no effect,A266V
3,with no effect,P134S

# Variants of: B3
# Conditions: with tfp11_human TFIP11, Q9UBB9
row,effect of a mutation on the interaction,Variant
1,with no effect,S259A

# Variants of: B3
# Conditions: with cdk6_human CDK6, Q00534
# cdk6_human CDK6, Q00534, sequence (Q00534 whole entry): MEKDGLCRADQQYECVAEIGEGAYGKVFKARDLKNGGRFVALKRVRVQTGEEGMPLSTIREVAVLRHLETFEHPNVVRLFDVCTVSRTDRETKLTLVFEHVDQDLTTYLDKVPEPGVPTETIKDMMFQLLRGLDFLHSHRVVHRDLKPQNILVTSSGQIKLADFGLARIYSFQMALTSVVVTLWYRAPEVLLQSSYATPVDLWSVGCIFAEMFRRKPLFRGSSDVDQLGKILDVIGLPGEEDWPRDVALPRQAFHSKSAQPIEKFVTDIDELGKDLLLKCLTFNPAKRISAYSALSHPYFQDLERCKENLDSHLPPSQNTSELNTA
row,effect of a mutation on the interaction,Variant
1,with no effect,A266V
2,with no effect,P134S
3,with no effect,E253D

# Variants of: B3
# Conditions: with cdn1a_human CDKN1A
row,effect of a mutation on the interaction,Variant
1,with no effect,E253D

# Variants of: B4
# Conditions: with aapk2_human PRKAA2, P54646
# aapk2_human PRKAA2, P54646, sequence (P54646 whole entry, looked up): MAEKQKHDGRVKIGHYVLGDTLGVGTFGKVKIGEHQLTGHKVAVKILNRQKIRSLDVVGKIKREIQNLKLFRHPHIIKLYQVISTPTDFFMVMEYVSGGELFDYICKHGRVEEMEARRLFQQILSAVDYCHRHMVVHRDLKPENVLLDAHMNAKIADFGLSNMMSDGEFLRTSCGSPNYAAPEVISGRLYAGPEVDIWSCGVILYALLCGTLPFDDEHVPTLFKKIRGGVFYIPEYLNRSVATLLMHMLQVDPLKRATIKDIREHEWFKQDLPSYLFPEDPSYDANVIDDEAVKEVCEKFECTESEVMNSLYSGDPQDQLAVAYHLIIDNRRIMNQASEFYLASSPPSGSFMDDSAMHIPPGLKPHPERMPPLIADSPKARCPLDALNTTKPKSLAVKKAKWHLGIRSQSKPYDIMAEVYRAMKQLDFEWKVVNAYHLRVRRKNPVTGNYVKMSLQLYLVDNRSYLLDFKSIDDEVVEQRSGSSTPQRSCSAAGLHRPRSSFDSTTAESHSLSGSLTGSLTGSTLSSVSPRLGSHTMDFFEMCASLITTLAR
row,effect of a mutation on the interaction,Variant
1,disrupting interaction strength,R104H
2,with no effect,N212D
3,with no effect,F41L
4,with no effect,T187A
5,with no effect,Y106H

# Variants of: B4
# Conditions: with KRT15, P19012
# Target sequence in this assay (P19012 whole entry): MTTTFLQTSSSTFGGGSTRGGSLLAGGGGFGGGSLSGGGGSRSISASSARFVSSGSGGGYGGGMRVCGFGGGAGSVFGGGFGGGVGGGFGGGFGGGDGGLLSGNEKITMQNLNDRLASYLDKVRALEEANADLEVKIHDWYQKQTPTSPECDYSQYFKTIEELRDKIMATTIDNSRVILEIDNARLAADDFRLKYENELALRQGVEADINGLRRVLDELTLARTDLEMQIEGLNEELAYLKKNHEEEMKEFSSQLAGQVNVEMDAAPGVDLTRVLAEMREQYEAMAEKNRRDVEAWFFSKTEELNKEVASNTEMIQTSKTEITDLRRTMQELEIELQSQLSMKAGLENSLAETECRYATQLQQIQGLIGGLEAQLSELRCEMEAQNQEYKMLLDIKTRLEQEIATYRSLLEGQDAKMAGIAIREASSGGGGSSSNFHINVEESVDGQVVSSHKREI
row,effect of a mutation on the interaction,Variant
1,with no effect,R104H
2,with no effect,N212D
3,with no effect,F41L
4,with no effect,T187A
5,disrupting interaction strength,Y106H

# Variants of: B4
# Conditions: with keap1_human KEAP1, Q14145
# keap1_human KEAP1, Q14145, sequence (Q14145 whole entry): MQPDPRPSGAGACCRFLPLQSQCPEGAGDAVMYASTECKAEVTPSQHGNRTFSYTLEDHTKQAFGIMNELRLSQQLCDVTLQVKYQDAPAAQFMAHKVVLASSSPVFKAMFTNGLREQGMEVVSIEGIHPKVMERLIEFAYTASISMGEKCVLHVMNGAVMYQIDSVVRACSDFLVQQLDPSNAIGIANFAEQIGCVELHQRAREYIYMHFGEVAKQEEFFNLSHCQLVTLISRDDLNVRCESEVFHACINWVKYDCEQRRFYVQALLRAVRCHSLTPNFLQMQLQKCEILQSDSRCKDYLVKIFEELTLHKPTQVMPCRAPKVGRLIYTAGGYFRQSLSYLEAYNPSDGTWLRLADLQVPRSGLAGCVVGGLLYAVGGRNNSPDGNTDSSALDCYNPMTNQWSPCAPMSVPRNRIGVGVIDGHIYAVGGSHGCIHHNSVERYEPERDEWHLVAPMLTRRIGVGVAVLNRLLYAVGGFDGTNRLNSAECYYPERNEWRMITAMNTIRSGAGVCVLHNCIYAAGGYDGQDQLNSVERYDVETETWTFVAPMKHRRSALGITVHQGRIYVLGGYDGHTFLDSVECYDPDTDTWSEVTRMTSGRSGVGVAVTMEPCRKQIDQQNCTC
row,effect of a mutation on the interaction,Variant
1,with no effect,R104H
2,with no effect,N212D
3,with no effect,F41L
4,with no effect,T187A
5,with no effect,Y106H

# Variants of: B5
# Conditions: with ch033_human C8orf33, Q9H7E9
# ch033_human C8orf33, Q9H7E9, sequence (Q9H7E9 whole entry): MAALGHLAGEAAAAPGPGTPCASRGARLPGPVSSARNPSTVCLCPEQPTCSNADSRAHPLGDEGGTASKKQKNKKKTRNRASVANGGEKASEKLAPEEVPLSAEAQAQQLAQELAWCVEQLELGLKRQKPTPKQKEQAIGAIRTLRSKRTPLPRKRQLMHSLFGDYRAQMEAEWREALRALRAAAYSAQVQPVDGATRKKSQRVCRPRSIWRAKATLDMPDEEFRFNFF
row,effect of a mutation on the interaction,Variant
1,with no effect,L12H

# Variants of: B5
# Conditions: with KRT15, P19012
# Target sequence in this assay (P19012 whole entry): as the sequence (P19012 whole entry) above
row,effect of a mutation on the interaction,Variant
1,with no effect,L12H

# Variants of: B5
# Conditions: with atf4_human ATF4, P18848
row,effect of a mutation on the interaction,Variant
1,with no effect,L12H

# Variants of: B5
# Conditions: with bard1_human BARD1, Q99728
row,effect of a mutation on the interaction,Variant
1,disrupting interaction strength,L12H

# Variants of: B5
# Conditions: with prp31_human PRPF31, Q8WWY3
row,effect of a mutation on the interaction,Variant
1,disrupting interaction strength,L12H

# Variants of: B5
# Conditions: with prc1_human PRC1, O43663
row,effect of a mutation on the interaction,Variant
1,disrupting interaction strength,L12H

# Variants of: B5
# Conditions: with zbt24_human ZBTB24, O43167
row,effect of a mutation on the interaction,Variant
1,disrupting interaction strength,L12H

# Variants of: B5
# Conditions: with vatg1_human ATP6V1G1, O75348
row,effect of a mutation on the interaction,Variant
1,disrupting interaction strength,L12H

# Variants of: B5
# Conditions: with exoc7_human EXOC7, Q9UPT5
# exoc7_human EXOC7, Q9UPT5, sequence (Q9UPT5 whole entry): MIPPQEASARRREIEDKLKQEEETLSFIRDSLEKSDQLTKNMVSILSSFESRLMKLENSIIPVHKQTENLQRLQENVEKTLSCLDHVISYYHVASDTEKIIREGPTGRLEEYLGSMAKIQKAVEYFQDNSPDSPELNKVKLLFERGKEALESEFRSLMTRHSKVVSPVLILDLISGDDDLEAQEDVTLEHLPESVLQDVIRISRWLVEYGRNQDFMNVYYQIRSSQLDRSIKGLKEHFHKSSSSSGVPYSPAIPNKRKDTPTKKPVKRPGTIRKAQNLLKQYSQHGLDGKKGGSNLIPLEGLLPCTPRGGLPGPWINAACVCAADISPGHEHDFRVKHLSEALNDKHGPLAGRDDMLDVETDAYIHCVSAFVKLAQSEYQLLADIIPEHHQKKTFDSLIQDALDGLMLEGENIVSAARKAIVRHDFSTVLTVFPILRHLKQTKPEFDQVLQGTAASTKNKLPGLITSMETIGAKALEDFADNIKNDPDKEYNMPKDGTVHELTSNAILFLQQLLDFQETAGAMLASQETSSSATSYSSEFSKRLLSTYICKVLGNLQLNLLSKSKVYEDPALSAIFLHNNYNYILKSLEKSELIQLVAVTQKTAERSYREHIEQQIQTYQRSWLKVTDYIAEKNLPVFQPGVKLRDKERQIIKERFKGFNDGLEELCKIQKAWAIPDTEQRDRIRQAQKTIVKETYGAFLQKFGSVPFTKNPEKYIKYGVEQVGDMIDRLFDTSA
row,effect of a mutation on the interaction,Variant
1,disrupting interaction strength,L12H

# Variants of: B5
# Conditions: with tha10_human THAP10, Q9P2Z0
row,effect of a mutation on the interaction,Variant
1,disrupting interaction strength,L12H

# Variants of: B5
# Conditions: with zn250_human ZNF250, P15622
row,effect of a mutation on the interaction,Variant
1,disrupting interaction strength,L12H

# Variants of: B5
# Conditions: with smrd1_human SMARCD1, Q96GM5
row,effect of a mutation on the interaction,Variant
1,disrupting interaction strength,L12H

# Variants of: B5
# Conditions: with mmta2_human MMTAG2, Q9BU76
row,effect of a mutation on the interaction,Variant
1,disrupting interaction strength,L12H

# Variants of: B5
# Conditions: with tnnt1_human TNNT1, P13805
row,effect of a mutation on the interaction,Variant
1,disrupting interaction strength,L12H

# Variants of: B5
# Conditions: with aebp2_human AEBP2, Q6ZN18
row,effect of a mutation on the interaction,Variant
1,with no effect,L12H

# Variants of: B6
# Conditions: with tpp2_human TPP2, P29144
row,effect of a mutation on the interaction,Variant
1,disrupting interaction strength,I646T

# Variants of: B6
# Conditions: with actb_human ACTB
row,effect of a mutation on the interaction,Variant
1,disrupting interaction strength,I646T

# Variants of: B6
# Conditions: with actg_human ACTG1, P63261
row,effect of a mutation on the interaction,Variant
1,disrupting interaction strength,I646T

# Variants of: B6
# Conditions: with tnip1_human TNIP1, Q15025
row,effect of a mutation on the interaction,Variant
1,disrupting interaction strength,I646T
